Molecular target: CD47 on A20 murine lymphoma cells (mouse) (UniProt Q61735)
Test: cell-based or functional assay

Sequence of UniProt Q61735 (Q61735 19-303): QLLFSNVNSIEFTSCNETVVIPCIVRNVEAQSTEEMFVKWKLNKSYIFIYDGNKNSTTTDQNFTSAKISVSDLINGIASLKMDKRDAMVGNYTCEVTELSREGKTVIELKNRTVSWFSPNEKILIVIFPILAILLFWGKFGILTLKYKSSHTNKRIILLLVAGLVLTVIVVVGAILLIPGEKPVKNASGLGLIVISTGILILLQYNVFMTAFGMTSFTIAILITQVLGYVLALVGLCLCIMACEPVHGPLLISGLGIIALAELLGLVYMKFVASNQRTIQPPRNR

phagocytosis of DiI-labelled A20 tumor cells by bone marrow-derived macrophages: 60 % increase
Substance: FITC-labeled anti-mouse CD47 monoclonal antibody, clone miap301

From patent US20260007703A1
